Measured values: a protein production outcome set (Wang et al. 2014)

Assay: label from the status in PepcDB records
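Note: failed if final PepcDB status was selected cloned or expressed and not failed if soluble or beyond.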

| Sequence | protein production |
| --- | --- |
| MNRTMSSINVLSLPVFNRDASGYDALRRGLIPCFDAFYGTALDLIDDWRDAEKLRVLDLGAGTGLFTAMLLTRHPDAQIHLIDASEKMLEQARKRFDGNPAITYAVADMANTELGGPWDLIISALAIHHLEDIGKKHLFGEIRGALSEGGLFVNVEQVLGHDPEVEARYARTWLQQVRRLGVAEVEIAKAHERMSHDRCSPLENQLQWMRDTGFCEIDCSFKAWRFAVLSGRR | failed |
| MHLSAYLLLVASLLFALFFAGTAAIQIWQGRTTALPWMEKGHLMLTAFMSVASAVLLHALANFDFSLVYVASYTDRALPLFYRLTAFWAGQAGSMLFWGWSVALFGVFFLFSPVYRRVSEPTRMWFWLLFLAMMGFFLLVLTCWSNPFTVVDPAPADGNGLNPLLQNPGMIFHPPLLFLGYGGFAIPGCLALAQSLSGMRLSEGAWADHARPFTLVAWLFLTAGIVLGGWWAYMELGWGGYWAWDPVENASLIPWLIASAYLHTAVIEARRNKLHRVNTFLMALTTISAFFATYLVRSGVVESLHAFGDGGVGTPLLIFIIVFTAVALGGSILWKHPDAKPLSGVESREGFLVMVAWVLLALGAIILVATMWPVFSKFWVDKPVGLEPAFYNRVCLPLFAVLVVMLAICPWLGWKGGLRNKVGAVTALGLFVGAAGGIWAAGYTIPTAVLGAAGAIAALGGIVMLLATEPHLRRSPQSLAAYGVHIGLALTALGVAFSGPYKTEHEVIMQQGDTVQVAGYDVTFKALYEGEGPGYIFIEAELDVKKNGSDVGMAQPQRRIYSKFGKQAFAEASTIPGLGNEFYAVLLGVDREGKATLHLNVTPLINWVWIGSIIMCLFPFIGMRRRKTAEA | failed |
| MDRSPERRTAVMIWGALVAGPALFLVVALALPLAGEPAPGIAQPLLLVLTGLVLVEVPLSWLWAVRARLAGKAGGEAISVEEQARTRLIIAAALCEGAALFAVVVFMVTRDARALPLFAIAFGALLAHYPGDRHWARLCRGSGAGSSAPPNRLMRG | failed |
| MFMREIELRGHIIDSLILPKVFDKILDMGGDYKVLEFEIGKRKTDPSYAKILVIGRDERHVDEILNELRDLGAEIPEIEEVELQPAEKDMVLPEGFYSTTNHKTFIRFKGKWIEVENQKMDGAIVVYPDEMRAEVKTIRNIKKGDLVVVGHKGVRVIPPEKPREGGGLFEFMKSDASSEKPKETIIRRIAKEMYEIREKYRKTGKGGIVVVGGPAIIHTGAGWALAKLIRMGYVQALFAGNALATHDIESVLYGTSLGVDLKTGKSVPGGHSHHLRAINTIMRAGSIKDAVEQGILKEGVMYECIKNNIPYVLAGSIRDDGPLPDVITDVVKAQEKMRELLKGKDMVLMLSTMLHSIATGNLLPSWVKTICVDINPAVVTKLMDRGTSQALGIVTDVGVFLPMLVEELEKLEKEKEKSEKREELEHHHHHH | not failed |
| MDAPKAGYAFEYLIETLNDSSHKKFFDVSKLGTKYDVLPYSIRVLLEAAVRNCDGFLMKKEDVMNILDWKTKQSNVEVPFFPARVLLQDFTGIPAMVDFAAMREAVKTLGGDPEKVHPACPTDLTVDHSLQIDFSKCAIQNAPNPGGGDLQKAGKLSPLKVQPKKLPCRGQTTCRGSCDSGELGRNSGTFSSQIENTPILCPFHLQPVPEPETVLKNQEVEFGRNRERLQFFKWSSRVFKNVAVIPPGTGMAHQINLEYLSRVVFEEKDLLFPDSVVGTDSHITMVNGLGILGWGVGGIETEAVMLGLPVSLTLPEVVGCELTGSSNPFVTSIDVVLGITKHLRQVGVAGKFVEFFGSGVSQLSIVDRTTIANMCPEYGAILSFFPVDNVTLKHLEHTGFSKAKLESMETYLKAVKLFRNDQNSSGEPEYSQVIQINLNSIVPSVSGPKRPQDRVAVTDMKSDFQACLNEKVGFKGFQIAAEKQKDIVSIHYEGSEYKLSHGSVVIAAVISCTNNCNPSVMLAAGLLAKKAVEAGLRVKPYIRTSLSPGSGMVTHYLSSSGVLPYLSKLGFEIVGYGCSTCVGNTAPLSDAVLNAVKQGDLVTCGILSGNKNFEGRLCDCVRANYLASPPLVVAYAIAGTVNIDFQTEPLGTDPTGKNIYLHDIWPSREEVHRVEEEHVILSMFKALKDKIEMGNKRWNSLEAPDSVLFPWDLKSTYIRCPSFFDKLTKEPIALQAIENAHVLLYLGDSVTTDHISPAGSIARNSAAAKYLTNRGLTPREFNSYGARRGNDAVMTRGTFANIKLFNKFIGKPAPKTIHFPSGQTLDVFEAAELYQKEGIPLIILAGKKYGSGNSRDWAAKGPYLLGVKAVLAESYEKIHKDHLIGIGIAPLQFLPGENADSLGLSGRETFSLTFPEELSPGITLNIQTSTGKVFSVIASFEDDVEITLYKHGGLLNFVARKFS | not failed |
| MKFSVIIPVYNASKFIDYCVESVLSQSYSDIEVILINDGSTDKSGEICEGFARKDNRVKVYHQENQGAAVARNHGIRKATGDYLLFPDSDDYYASSLGFEEINNQLEETKADVLIHDSFVERGNGTPDDLHSSLLREEVLKLEKIEFIEYLIKKDKLTRSAWTKVISRSFLSKNNILFPTVRQTEDTGFTAELVRLGNSFDWYEKQFYAYVKHDESVTAKRLPESIIHDSFSVIKTAVINGELIKDSRYREAYYSYLAYPYVVLIGQTKEAINRGVIKENTILNDLKQYSFLMKYNLNPKLKVIKHLYKLFGYLMIVFLLSVMMELTYRKQGV | failed |
| MSDEGPGTGPGNGLGEKGDTSGPEGSGGSGPQRRGGDNHGRGRGRGRGRGGGRPGAPGGSGSGPRHRDGVRRPQKRPSCIGCKGTHGGTGAGAGAGGAGAGGGGRGRGGSGGRGRGGSGGRRGRGRERARGGSRERARGRGRGRGEKRPRSPSSQSSSSGSPPRRPPPGRRPFFHPVGEADYFEYHQEGGPDGEPDVPPGAIEQGPADDPGEGPSTGPRGQGDGGRRKKGGWFGKHRGQGGSNPKFENIAEGLRALLARSHVERTTDEGTWVAGVFVYGGSKTSLYNLRRGTALAIPQCRLTPLSRLPFGMAPGPGPQPGPLRESIVCYFMVFLQTHIFAEVLKDAIKDLVMTKPAPTCNIRVTVCSFDDGVDLPPWFPPMVEGAAAEGDDGDDGDEGGDGDEGEEGQELEHHHHHH | failed |
| MNQCRLRSLARIRRSLTLGLRGTDQHVLARQALRTIQTTSQRRGVHDLDSFANGCSAAYIEGLYNKWKRNPSSVDESWNELFSSNDWSSPKRSPLQVSHSRKYRRPPVERIAVKARSGERTASGGASAAPAAPPSDWKNIDDHHVIQAIIRAYQSRGHLAADLDPLGIVGPKKRTSVDGTQRHAAREVLRQHFSYIFNDLNTVFKLPSSTMIGGDQEFLSLKEILDRLERIYCGHIGVEYMQITSLTKTNWLRDRFEKPGGLDLTKEEKKLILERLTRSTGFENFLAKKFSSEKRFGLEGCDIMIPAIKEVVDRATDHGVESILIGMAHRGRLNVLANICRKPISDILSQFHGLQATDSGSGDVKYHLGVFQERLNRQTNRMVRITVVANPSHLEHVNPVLLGKARAEMFQRGDTCGSTVMPIIIHGDASFSGQGVVYESMHLSDLPNYTTYGTIHIVSNNQVGFTTDPRFSRSSRYCTDVAKVVNAPILHVNADDPEACIQCARIAIDYRTRFKKDVVIDIVGYRRNGHNEADEPMFTQPLMYQRIKKLKPCLQLYADKLIKEGVVTDSEFKAMVSSYEKICEDAWAKSKTIKTIKYSSWIDSPWPGFFEGRDRLKLCPTGISTDTLKTIGNMFSTPPPPEHKFETHKGILRILAQRTQMVQDKVADWSLGEAFAFGSLLKEGIHVRLSGQDVERGTFSHRHHVLHHQSEDKVVYNSLDHLYPDQAPYSVSNSSLSECAVLGFEHGYSMASPNALVMWEGQFGDFCNTAQCIIDTFIASGETKWVRQSGVVMLLPHSMEGMGPEHSSGRIERFLQMSDDDPDVYPDTCDADFVARQLMNVNWIVTNLSTPANLFHCLRRQVKMGFRKPLINFSPKSLLRHPLARSPFKDFNECSCFQRIIPDKGPAGKQPDCVQKLVFCSGKVYYDLVKERDDHEQVETVALVRVEQLCPFPYDLISQQLELYPKAELLWAQEEHKNMGAWSYVQPRFDTALLKNENESRCVSYHGRPPSASPATGNKVQHYNEYKALITSIFGELTPENKKRIEDRIKKQQAKAKADAQSKPSTKPPAAPPKGGSSPPPGPAPRKPLISLPSRPPRGGKQRSGSAPAPNLVDEDSAARNREPDASAYDGASPSAWKRSGSAPAPSVVPRASASRSPSRKSPSPSHDGISPSTRQESLSKKKSGSAPAPTPTSRGPFRTAPSNTEFIKRRPAKDYGSRNETQSTPGESELDPTKPQP | failed |
| MARLIVNALVSVPLAEIEIGFVRSGGAGGQNVNKLATAAHLRFDIAASSLPETCKTRLLDHRDRRMTAEGIIVIKAQRFGTQEKNREDALARLRGLILQALAQRRPRKPTRPTLAAKKKRLDEKTRHGEIKRLRRRIGDLEHHHHHH | failed |
| MADDDVLFEDVYELCEVIGKGPFSVVRRCINRETGQQFAVKIVDVAKFTSSPGLSTEDLKREASICHMLKHPHIVELLETYSSDGMLYMVFEFMDGADLCFEIVKRADAGFVYSEAVASHYMRQILEALRYCHDNNIIHRDVKPHCVLLASKENSAPVKLGGFGVAIQLGESGLVAGGRVGTPHFMAPEVVKREPYGKPVDVWGCGVILFILLSGCLPFYGTKERLFEGIIKGKYKMNPRQWSHISESAKDLVRRMLMLDPAERITVYEALNHPWLKERDRYAYKIHLPETVEQLRKFNARRKLKGAVLAAVSSHKFNSFYGDPPEELPDFSEDPTSS | failed |
| DGSFRRWSLRQVPEVQGAFMAMDVNSGRVLAMQGGFSYQYSVFNRATQATRQPGSSFKPFVYAAALDSGFTPATIVIDAPIEVQTAQGLWTPKNASGKYYGPTPLRTGVEQSRNLMTVRIAQEIGMDTVASYAERFGVYDRMGQFLANALGAEETTLFKMVAAYAMFANGGERVQPTLVDRVQDRFGRTIYRHDQRICDDCAQPLLPEGRAPHITSKRERVMDAITAYQLTSMMEGVIKRGTGRGINLPVPVAGKTGTTNDAKDVWFIGYTSNIVAGCYIGYDQPRSMGSASGGGFCGPVFQSFMTKAVKKYGGSEF | failed |
| MHYPVLVNPRKPSLSRMPMKKPKRASAAKAKKGRKISASRSKPATKRPAKPPRRGASLDGTKDSAKIIRGLRSKLKAAERRVAELEAAADTDFLLEIPNRRGFERELTRAIAYMKRYRATGALIVLDVDRLKPINDSFGHAAGDEVLKAIVGALTRQVRASDVVGRLGGDEFALLLWNLNETDAKAKAAAFEQTIDELSFVFRSQNVTAGASAGVALLGAHSDAGRALEEADAAMYVRKARRRHEPRIRLVSN | failed |
| MGHHHHHHSHMNSDSECPLSHDGYCLHDGVCMYIEALDKYACNCVVGYIGERCQYRDLKWWELR | failed |
| MSLINARLIAFEDQWVPALNAPLKQAILADSQDAQLAAAMTYSVLAGGKRLRPLLTVATMQSLGVTFVPERHWRPVMALELLHTYSLIHDDLPAMDNDALRRGEPTNHVKFGAGMATLAGDGLLTLAFQWLTATDLPATMQAALVQALATAAGPSGMVAGQAKDIQSEHVNLPLSQLRVLHKEKTGALLHYAVQAGLILGQAPEAQWPAYLQFADAFGLAFQIYDDILDVVSSPAEMGKATQKDADEAKNTYPGKLGLIGANQALIDTIHSGQAALQGLPTSTQRDDLAAFFSYFDTERVNEGHHHHHH | not failed |
| MSLHPHAMPDMGPDMNKVPWMGDEQIAMLVYPGMTVMDLVGPHCMFGSLMGAKIYIVAKSLDPVTSDAGLAIVPTATFGTCPRDLTVLFAPGGTDGTLAAASDAETLAFMADRGARAKYITSVCSGSLILGAAGLLKGYKATSHWSCRDALAGFGAIPTEARVVRDRNRITGAGVTAGLDFGLSMVAELRDQTYAECAQLMSEYDPDPPFNAGSMKTAPAHVRTAMIELVAEFTKKADALAGFPKEGHHHHHH | not failed |
